Assay results reported in patent publication US20260069689A1 (Regeneron, published 2026).

Assays:
[1] = target: SARS-COV-2 RBD extracellular domain expressed with a C-terminal myc-myc-hexahistidine tag (SARS-CoV-2); assay: SPR (Biacore), mAb captured by anti-human Fc, RBD-mmH in solution, 25 C
[2] = target: SARS-COV-2 RBD extracellular domain expressed with a C-terminal myc-myc-hexahistidine tag (SARS-COV-2 RBD-mmH) (SARS-CoV-2); assay: SPR Biacore, mAb captured on anti-hFc, RBD-mmH analyte, 37 C

B1: mAb14282 (antibody, V domains shown)
VH: QVQLVQSGAEVKKPGASVKVSCKASGYIFTDHYMHWVRQAPGQGLEWMGWINPNSGATNYAQNFQGRVTMTRDTSIITVYMELSRLRSDDTAVYYCARDSSPYMIRYTMDVWGQGTTITVSS
VL: QSALTQPASVSGSPGQSITISCTGTSSDVGSYNLVSWYQQHPGKAPKLMIYELTKRPSGVSNRFSGSKSGNTASLTISGLQAEDEADYYCSSYRGSVTDVVFGGGTKLTVLG
Kd [1]: 4.97 nM | koff [1]: 0.00957 s⁻¹ | kon [1]: 1.93e+06 M⁻¹ s⁻¹ | t½ [1]: 1.2 min

B2: mAb15161 (antibody, V domains shown)
VH: EVQLVESGGGLVQPGGSLRLSCAASGFTFSSYEMNWVRQAPGKGLEWVSYISSSGSILYYADSVKGRFTASRDNAKNSLYLQMNSLRAEDTGVYYCARREYQLLRPFEFWGQGTLVTVSS
VL: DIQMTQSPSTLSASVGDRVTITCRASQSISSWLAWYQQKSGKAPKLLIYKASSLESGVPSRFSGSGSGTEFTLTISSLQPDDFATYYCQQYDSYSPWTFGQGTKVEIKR
Kd [2]: 3.29 nM | koff [2]: 0.000866 s⁻¹ | kon [2]: 263000 M⁻¹ s⁻¹ | t½ [2]: 13.3 min

B3: mAb14256 (antibody, V domains shown)
VH: QVQLQESGPGLVKPSETLSLTCTVSGGSISSHYWSWIRQPPGKGLEWIGYIYYSGSSNYNPSLKSRVTISVDTSKNQFSLKLNSVTAADTAVYYCARHYDILTGFDWFDPWGQGTLVTVSS
VL: QSVLTQPPSVSGAPGQRVTISCTGSSSNIGTHYDVHWYQQLPGTAPKLLIYGNSNRPSGVPDRFSGSKSGTSASLAITGLQAEDEADYYCQSFDNSLTAPYVFGTGTKVTVLG
Kd [1]: 8.32 nM | koff [1]: 0.00927 s⁻¹ | kon [1]: 1.11e+06 M⁻¹ s⁻¹ | t½ [1]: 1.2 min

B4: mAb15162 (antibody, V domains shown)
VH: EVQLVETGGGLIQPGGSLRLSCAASEFIVSRNYMSWVRQAPGKGLEWVSLIYSGGSTYYADSVKGRFTISRDNSKNILYLQMNSLRAEDTAVYYCARDRGGISDYWGQGTLVTVSS
VL: DIQMTQSPSSLSASVGDRVTITCQASQDINKYLNWFQQKPGKAPKLLIYDASNLETGVPSRFSGSGSGTDFTFTISSLQPEDIATYYCQQYDNLPRTFGQGTKLEIKR
Kd [2]: 29.2 nM | koff [2]: 0.00299 s⁻¹ | kon [2]: 103000 M⁻¹ s⁻¹ | t½ [2]: 3.9 min

B5: mAb14230 (antibody, V domains shown)
VH: EVQLVESGGGLIQPGRSLRLSCAASGFTFDDYAMHWVRQAPGKGLEWVSGISWNSVSIDYADSVKGRFTISRDNAKNSLYLQMTSLTVEDTALYYCAKAFGYETLTGSDYFAYWGPGTLVTVSS
VL: EIVLTQSPGTLSLSPGERATLSCRASQTVISTYLAWYQQKPGQSPRLLIYGASSRATGIPDRFSGSGSGTDFTLTISRLEPEDFAVYYCQQYGSSPQLTFGGGTKVEIKR
Kd [1]: 7.51 nM | koff [1]: 0.00852 s⁻¹ | kon [1]: 1.13e+06 M⁻¹ s⁻¹ | t½ [1]: 1.4 min

B6: mAb14280 (antibody, V domains shown)
VH: QVQLVQSGAEVKKPGASVRVSCKASGYTFTGNYIHWVRQAPGQGLEWMAWINPNSGGKNYAQKFQGRVTLTRDTSVNTAYMELSRLRSDDTAMYYCARDVNYNILTGPGGLWGQGTLVTVSS
VL: QSALTQPPSASGSPGQSVTISCTGTSSDVGGYNFVSWYQQHPGKAPKLMIYEVSKRPSGVPDRFSGSKSGNTASLTVSGLQAEDEADYYCSSYAGSNNFVFGTGTKVTVLG
Kd [1]: 15.4 nM | koff [1]: 0.0255 s⁻¹ | kon [1]: 1.66e+06 M⁻¹ s⁻¹ | t½ [1]: 0.5 min

B7: mAb15163 (antibody, V domains shown)
VH: EVQLVETGGGLIQPGESLRLSCAASGFIVSTNYMNWVRQAPGKGLEWVSVIYRGGSTYYADSVKGRFTISRDNSKNTLFLQMNSLRAEDTAVYYCARGHEDFDYDTPASGAFDIWGQGTMVTVSS
VL: QSALTQPPSASGSPGQSVTISCTGTSSDVGGHNYVSWYQQHPGKAPKVMIYEVSKRPSGVPDRFSGSKSGNTASLTVSGLQAEDEADYYCSSYAGSNKFVFGTGTKVTVLG
Kd [2]: 1.78 nM | koff [2]: 0.000387 s⁻¹ | kon [2]: 218000 M⁻¹ s⁻¹ | t½ [2]: 29.9 min

B8: mAb14286 (antibody, V domains shown)
VH: QVQLVQSGAEVKKPGASVKVSCKASGYTFTDYFIHWVRQAPGQGLEWMGWINPTSGGTNYAQKFRGRVTMTRDTSISTAYVELSRLRSDDTALYYCARDLPFYSDTKQFDYWGQGTLVTVSS
VL: QSALTQPASVSGYPGQSITISCTGTSSDVGGYNYVSWYQQHPGKAPKLMIFDVSNRPSGVSNRFSGSKSGNTASLTFSGLQAEDEADYYCSSYTSSSTLVFGGGTKLTVLG
Kd [1]: 3.22 nM | koff [1]: 0.0104 s⁻¹ | kon [1]: 3.23e+06 M⁻¹ s⁻¹ | t½ [1]: 1.1 min

B9: mAb15160 (antibody, V domains shown)
VH: EVQLVESGGGLVQPGGSLRLSCSASGFTFSRYAMYWVRQAPGKGLEYVSAISSDGGSTYDADSVKGRFTISRANSKNTLYLQMSSLRAEDTAVYYCVKGLRELLYYYYGMDVWGQGTTVTVSS
VL: DIQMTQSPSSLSASVGDRVTITCRAGQSISSFLNWYQQKPGKAPKLLIYAASSLQSGVPSRFSGSGSGTDFTLTISSLQPEDFATYYCQQSYITPFTFGPGTKVDIKR
Kd [2]: 7.79 nM | koff [2]: 0.00194 s⁻¹ | kon [2]: 250000 M⁻¹ s⁻¹ | t½ [2]: 5.9 min

B10: mAb15151 (antibody, V domains shown)
VH: QVQLVESGGGVVQPGRSLRLSCAASGFVFNSYGMHWVRQAPGKGLEWVAVLWYEGSKNYYADSVKGRFTISRDNSKNTLYLQMNSLRAEDTAVYYCARHGSGSFFGYYLDYWGQGTLVTVSS
VL: DIQMTQSPSSLSASVGDRVTITCRASHNINDFLNWYQQKPGKAPRLLIYAASSLQSGVPSRFSGSGSGTDFTLTISSLQPEDFATYYCQESYTTPPTFGQGTKLEIKR
Kd [2]: 24.6 nM | koff [2]: 0.00442 s⁻¹ | kon [2]: 180000 M⁻¹ s⁻¹ | t½ [2]: 2.6 min

B11: mAb14292 (antibody, V domains shown)
VH: EVQLVESGGGLVQPGGSLRLSCVASGFAFSTYEMNWVRQAPGKGLEWVSYISSSGSTIYYADSVKGRLTISRDNVKNSLYLQMNSLRVEDTAIYYCARDAIRNNDILTDPATFDPWGQGTLVTVSS
VL: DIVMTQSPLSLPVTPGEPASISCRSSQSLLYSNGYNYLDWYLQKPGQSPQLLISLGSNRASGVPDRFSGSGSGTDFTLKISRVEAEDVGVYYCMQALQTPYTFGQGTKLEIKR
Kd [1]: 40.9 nM | koff [1]: 0.0171 s⁻¹ | kon [1]: 417000 M⁻¹ s⁻¹ | t½ [1]: 0.7 min

B12: mAb15150 (antibody, V domains shown)
VH: EVQLVETGGGLIQPGGSLRLSCAAPGFIVSSNYMSWVRQAPGKGLEWVSLLYPGGSTYYADSVKGRFTISRDNSKNTLYLQMNSLRADDTAVYYCARVLPIVEDHFDYWGQGTLVTVSS
VL: DIQLTQSPSFLSASVGDRVTITCRASQGMSSYLAWYQKKPGKAPKLLIYGATILQSGVPSRFSGSGSGTEFTLTISSLQPEDFATYYCQQLNSDPLYMYTFGQGTKLEIKR
Kd [2]: 0.158 nM | koff [2]: 7.84e-05 s⁻¹ | kon [2]: 493000 M⁻¹ s⁻¹ | t½ [2]: 147 min

B13: mAb14234 (antibody, V domains shown)
VH: QVQLVESGGGVVQPGRSLRLSCAASGFTFSSYGIHWVRQAPGKGLEWVAIIWYDGSEKYYADSVKGRFTISRDNSKNTLFLQMNSLEAEDTAVYYCARGPDLLTGYYNYFYYGMDVWGQGTTVTVSS
VL: QSVLTQPPSVSGAPGQRVTISCTGSSSNIGIGYDVHWYQQLPGTVPKLLIYGNTNRPSGVPDRFSGSKSGTSASLAITGLQAEDEADYYCQSYDSSLSSYVFGTGTKVTVLG
Kd [1]: 20.5 nM | koff [1]: 0.0113 s⁻¹ | kon [1]: 550000 M⁻¹ s⁻¹ | t½ [1]: 1 min

B14: mAb14285 (antibody, V domains shown)
VH: QVQLVQSGAEVKKPGASVKVSCKASGYTFTGYFIHWVRQAPGQGLEWMGWISPISGGTNYAQKFQGRVTVTRDTSITTAYMELSRLTSDDTAVYHCAREGGTWKGDFDYWGQGTLVTVSS
VL: QSALTQPASVSGSPGQSITISCTGTSSDVESYNLVSWYQQHPGKAPKLMIYEGSKRPSGVSNRFSGSKSGNTASLTISGLQAEDEADYYCSSYAGSSTWVFGGGTKLTVLG
Kd [1]: 11.7 nM | koff [1]: 0.0211 s⁻¹ | kon [1]: 1.8e+06 M⁻¹ s⁻¹ | t½ [1]: 0.5 min

B15: mAb15164 (antibody, V domains shown)
VH: EVQLVESGGGLVQPGGSLRLSCAASGFAVSSNYMTWVRQAPGKGLEWVATIYSGDSTYYADSVKGRFTISRHNSKNTLSLQMNSLRADDTAIYYCARLSGVLSGTYNGAFDIWGQGTMVTVSS
VL: QSALTQPASVSGSPGQSITISCTGTSSDFGNYNIVSWYQQHPGQAPKVMIYEGNKRPSGVSNRFSGSKSGHTASLTISGLQAEDEADYYCSSYAGSSTWVFGGGTKLTVLG
Kd [2]: 6.33 nM | koff [2]: 0.00179 s⁻¹ | kon [2]: 283000 M⁻¹ s⁻¹ | t½ [2]: 6.5 min

B16: mAb15166 (antibody, V domains shown)
VH: EVQLVESGGGLVQPGGSLRLSCAASGFTVTSNYMSWVRQAPGKGLEWVSAIYSGESTYYADSVKGRFTISRDSSKNTLYLQMNSLRVEDTAVYYCASIHDYSNYVGGFDPWGQGTLVTVSS
VL: QSALTQPASVSGSPGQSITISCTGPSSDFGSYNLVSWYQQHPGKAPKLMIYEGTKRPSGVSNRFSGSKSGNTASLTISGLQAEDEADYYCSSYAGSSTWVFGGGTKLTVLG
Kd [2]: 95.3 nM | koff [2]: 0.0334 s⁻¹ | kon [2]: 350000 M⁻¹ s⁻¹ | t½ [2]: 0.3 min

B17: mAb15165 (antibody, V domains shown)
VH: EVQLVESGGGLVQPGGSLRLSCAASGFTVSSNYMSWVRQAPGKGLEWVSAIYSGDSTYYADSVKGRFTISKDNSKNTLYLQMNSLRGEDTAVYYCARLGGALQAYDGAFDYWGQGTLATVSS
VL: QSALTQPASVSGSPGQSITISCTGTSSDFGSYNLVSWYQQHPGKAPKLMIYEGNKRPSGVSIRFSGSKSGNTASLTISGLQAEDEADYYCSSYAGSSTWVFGGGTKLTVLG
Kd [2]: 3.1 nM | koff [2]: 0.00147 s⁻¹ | kon [2]: 475000 M⁻¹ s⁻¹ | t½ [2]: 7.9 min

B18: mAb14281 (antibody, V domains shown)
VH: QVQLVQSGADVKKPGASVKVSCKTSGYIFTGYYIHWVRQAPGQGLEWMGWINPNSGGTNSAQKFQGRVTMTRDTSISTVYMELSRLRSDDTAVYYCAKSNSFSVLDYNFDYWGQGTLVTVSS
VL: SSELTQDPAVSVALGQTVRITCQGDSLRSYYASWYQQKPGQAPVLVIYDKNNRPSGIPDRFSGSSSGNTASLTITGAQAEDEADYYCNSRDSSRNHLVVFGGGTKLTVLG
Kd [1]: 5.02 nM | koff [1]: 0.00554 s⁻¹ | kon [1]: 1.1e+06 M⁻¹ s⁻¹ | t½ [1]: 2.1 min

B19: mAb15170 (antibody, V domains shown)
VH: EVQLVESGGGLVQPGGSLRLSCAATGITVSSNYMSWVRQAPGKGLEWVSLIYSGGSTFYADSVKGRFTISRHNSKNTLYLQMSSLRAEDTAVYYCARDLVDFGMDVWGQGTTVTVSS
VL: DIQLTQSPSSLSASVGDRVTITCRASQGISNYLAWYQQKPGKAPKLLIYAASTLQSGVPSRFSGSGSGTDFTLTISSLQPEDFGTYYCQQLNSDSPTFGQGTKVEIKR
Kd [2]: 0.297 nM | koff [2]: 8.36e-05 s⁻¹ | kon [2]: 283000 M⁻¹ s⁻¹ | t½ [2]: 138 min
